Tests used:
[1] = biological target: T1, cynomolgus monkey PD1 antigen (cynomolgus monkey, UniProt B0LAJ3 25-170); experiment: ELISA, coated cynomolgus PD1
T1 construct: also called cynomolgus PD1

[2] = biological target: T2, murine PD1 antigen (murine, UniProt Q02242 25-167, limits assumed); experiment: ELISA, coated murine PD1
T2 sequence (looked up): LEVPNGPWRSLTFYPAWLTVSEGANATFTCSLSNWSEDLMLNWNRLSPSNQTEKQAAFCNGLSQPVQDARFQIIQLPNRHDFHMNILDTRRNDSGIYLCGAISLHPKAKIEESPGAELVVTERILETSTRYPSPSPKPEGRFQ

T1 sequence (B0LAJ3 entry or part of it limits assumed, form in doubt): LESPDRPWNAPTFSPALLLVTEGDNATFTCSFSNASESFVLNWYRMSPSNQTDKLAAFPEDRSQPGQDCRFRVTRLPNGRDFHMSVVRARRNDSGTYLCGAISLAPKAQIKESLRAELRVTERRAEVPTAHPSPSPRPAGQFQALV

B1: IgG1_WT nivolumab (antibody, V domains shown)
VH: QVQLVESGGGVVQPGRSLRLDCKASGITFSNSGMHWVRQAPGKGLEWVAVIWYDGSKRYYADSVKGRFTISRDNSKNTLFLQMNSLRAEDTAVYYCATNDDYWGQGTLVTVSS
VL: EIVLTQSPATLSLSPGERATLSCRASQSVSSYLAWYQQKPGQAPRLLIYDASNRATGIPARFSGSGSGTDFTLTISSLEPEDFAVYYCQQSSNWPRTFGQGTKVEIK
- OD 450 nm at 0.2 µg/ml [1]: 2.39 OD 450 nm
- OD 450 nm at 0.2 µg/ml [2]: 0.305 OD 450 nm

Source: US20190218292A1 (LABORATOIRE FRAN AIS DU FRACTIONNEMENT ET DES BIOT …, published 2019)
